Biological target: T1, prolyl endopeptidase (PEP) (Elizabethkingia meningoseptica, UniProt P27028)
T1 construct: purchased Seikagaku Corporation (Tokyo, Japan)
Test: biochemical
Format: biochemical
Settings: 0.7 and 1.4 mg/mL
Procedure: The PEP activity was determined as previously described with minor modifications. Enzyme assays were performed in 96-well microplates using Z-Gly-Pro-p-nitroanilide as a substrate and measuring the increase in absorbance at 410 nm due to the release of p-nitroaniline. Ten µL of tenfold peptide or hydrolysate solution in 100 mM sodium phosphate buffer, pH 7 ([…] for LFHs), 30 µL of a 0.1 U/mL PEP solution in 100 mM sodium phosphate buffer (pH 7) and 35 µL of the same sodium phosphate buffer were pre-incubated at 30 °C for 5 min, and the mixture incubated with 25 µL of 2 mM Z-Gly-Pro-p-nitroanilide in 40% 1,4-dioxane for 30 min at the same temperature. The reaction was finished by the addition of 100 µL 10% Triton X-100 in 1 M sodium acetate buffer (pH 4), and the absorbance measured at 410 nm in a microplate reader. Data are expressed as the percentage of PEP residual activity with respect to a control without peptide (100%).
The IC50 value of a peptide was defined as the concentration required to inhibit 50% of the PEP activity and the value for each experiment was estimated by non-linear regression of the experimental data to a four-parameter logistic curve using the software package SigmaPlot v 13.0 (SPSS Inc., Chicago, IL, USA).

T1 sequence (P27028 21-705): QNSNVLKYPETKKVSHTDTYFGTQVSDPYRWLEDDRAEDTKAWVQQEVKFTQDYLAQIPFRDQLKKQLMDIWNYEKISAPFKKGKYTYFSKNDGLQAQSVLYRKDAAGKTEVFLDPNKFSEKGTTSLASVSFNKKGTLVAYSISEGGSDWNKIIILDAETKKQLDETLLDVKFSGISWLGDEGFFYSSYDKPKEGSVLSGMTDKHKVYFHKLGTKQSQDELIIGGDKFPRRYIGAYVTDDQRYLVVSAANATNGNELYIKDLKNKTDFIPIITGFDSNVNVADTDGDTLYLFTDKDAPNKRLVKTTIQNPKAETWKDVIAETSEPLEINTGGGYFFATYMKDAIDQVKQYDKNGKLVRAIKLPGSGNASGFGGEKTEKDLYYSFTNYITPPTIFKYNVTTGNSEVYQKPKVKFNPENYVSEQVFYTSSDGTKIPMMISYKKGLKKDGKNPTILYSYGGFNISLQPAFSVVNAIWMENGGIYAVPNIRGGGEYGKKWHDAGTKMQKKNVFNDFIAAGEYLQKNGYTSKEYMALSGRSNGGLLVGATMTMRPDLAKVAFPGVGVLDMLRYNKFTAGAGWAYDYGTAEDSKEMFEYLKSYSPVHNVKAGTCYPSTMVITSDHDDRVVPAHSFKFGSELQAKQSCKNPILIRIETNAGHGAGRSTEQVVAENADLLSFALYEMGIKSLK

B1: Non-hydrolysed LF: bovine lactoferrin, multifunctional iron glycoprotein of milk whey, not hydrolysed (protein, UniProt P24627 20-708, looked up)
Lactotransferrin: APRKNVRWCTISQPEWFKCRRWQWRMKKLGAPSITCVRRAFALECIRAIAEKKADAVTLDGGMVFEAGRDPYKLRPVAAEIYGTKESPQTHYYAVAVVKKGSNFQLDQLQGRKSCHTGLGRSAGWIIPMGILRPYLSWTESLEPLQGAVAKFFSASCVPCIDRQAYPNLCQLCKGEGENQCACSSREPYFGYSGAFKCLQDGAGDVAFVKETTVFENLPEKADRDQYELLCLNNSRAPVDAFKECHLAQVPSHAVVARSVDGKEDLIWKLLSKAQEKFGKNKSRSFQLFGSPPGQRDLLFKDSALGFLRIPSKVDSALYLGSRYLTTLKNLRETAEEVKARYTRVVWCAVGPEEQKKCQQWSQQSGQNVTCATASTTDDCIVLVLKGEADALNLDGGYIYTAGKCGLVPVLAENRKSSKHSSLDCVLRPTEGYLAVAVVKKANEGLTWNSLKDKKSCHTAVDRTAGWNIPMGLIVNQTGSCAFDEFFSQSCAPGADPKSRLCALCAGDDQGLDKCVPNSKEKYYGYTGAFRCLAEDVGDVAFVKNDTVWENTNGESTADWAKNLNREDFRLLCLDGTRKPVTEAQSCHLAVAPNHAVVSRSDRAAHVKQVLLHQQALFGKNGKNCPDKFCLFKSETKNLLFNDNTECLAKLGGRPTYEEYLGTEYVTAIANLKKCSTSPLLEACAFLTR
For B1, the “inhibitory effect on PEP activity” value was “did not show any inhibitory effect”.

— PMC5983740, “Tryptophan-Containing Dual Neuroprotective Peptides: Prolyl Endopeptidase Inhibition and Caenorhabditis elegans Protection from β-Amyloid Peptide Toxicity” (International Journal of Molecular Sciences, 2018)
